Columns and labels:
[1] = target: CagI N-terminal domain (CagI^N) (Helicobacter pylori strain 26695); assay: SEC-MALS
[2] = target: CagI N-terminal domain (CagI^N) (Helicobacter pylori strain 26695); assay: SEC-SAXS
[3] = target: CagI (untagged, residues 21 to 381) (Helicobacter pylori strain 26695); assay: SEC-MALS
[4] = target: CagI with a C-terminal strep-tag (residues 21-381) (Helicobacter pylori strain 26695); assay: SEC-MALS

Substance: CagI N-terminal domain (CagI^N) (domain or fragment)
- stoichiometry N [1]: 2
- stoichiometry N [2]: 2

Substance: CagI (untagged, residues 21 to 381) (natural protein)
- stoichiometry N [3]: 2

Substance: CagI with a C-terminal strep-tag (residues 21-381) (natural protein)
- stoichiometry N [4]: 2

Source: paper PMC10194873
